Reference: US6358897B1, “Alkyl trypsin compositions and methods of use in contact lens cleaning and disinfecting systems” (Alcon Laboratories, Inc., priority 1996, dated 2002)

How the values were obtained:
Assay type in all cases: physicochemical
azocasein [1] = assay: Thermal stability of Me-trypsin and trypsin in a disinfecting solution (Example 5C), azocasein method; conditions: Example 5C composition, 50 μg/ml
Protocol: Azocasein Method The following solutions are used in this assay: 1) Buffer solution: 0.05 M sodium phosphate buffer containing 0.9% sodium chloride, pH 7.6. 2) Substrate solution: 2 mg/ml azocasein in the buffer solution mentioned above. The assay is initiated by mixing 1 ml of an appropriately diluted (such that the enzyme activity is in the range of standard curve) enzyme composition in phosphate buffer with 2 ml of azocasein substrate solution (2 mg/ml). After incubation at 37° C. for 20 minutes, the mixture is removed from the incubator and 1 ml of trichloroacetic acid to (14% w/v) is added to stop the enzyme reaction. The mixture is vortexed well and allowed to stand at room temperature for 20 minutes. After centrifuging at 2500 rpm (with a Beckman GS-6R Centrifuge) for 15 minutes, the supernatant is filtered with a serum sampler. 2 ml of the clear yellow filtrate is then adjusted to a neutral pH with 2 ml of 0.5 N sodium hydroxide and the absorbance of 440 nm wavelength light is measured with a spectrophotometer. The amount of azocasein hydrolyzed is calculated based on a standard curve of known concentrations of azocasein solution developed under identical conditions. An enzyme activity unit (“AZ U”) is defined as that amount of enzyme which hydrolyzes 1 μg of azocasein substrate/minute at 37° C. The following is an example of the stability of Me-trypsin in a disinfecting composition of the present invention as compared to an analogous composition containing trypsin. The enzymes were solubilized in the Example 5C composition. The two compositions were incubated at 35° C. or 40° C. At the appointed time, aliquots were tested for enzyme activity by the azocasein method. Activity levels were compared with initial levels and expressed as percent remaining activity.

azocasein [2] = assay: Stability of Me-trypsin, trypsin and pancreatin in a disinfecting composition (Example 5C), azocasein method; conditions: for % Activity Remaining: Example 5C composition, 50 μg/ml (pancreatin 375 μg/ml)
Protocol: Azocasein Method The following solutions are used in this assay: 1) Buffer solution: 0.05 M sodium phosphate buffer containing 0.9% sodium chloride, pH 7.6. 2) Substrate solution: 2 mg/ml azocasein in the buffer solution mentioned above. The assay is initiated by mixing 1 ml of an appropriately diluted (such that the enzyme activity is in the range of standard curve) enzyme composition in phosphate buffer with 2 ml of azocasein substrate solution (2 mg/ml). After incubation at 37° C. for 20 minutes, the mixture is removed from the incubator and 1 ml of trichloroacetic acid to (14% w/v) is added to stop the enzyme reaction. The mixture is vortexed well and allowed to stand at room temperature for 20 minutes. After centrifuging at 2500 rpm (with a Beckman GS-6R Centrifuge) for 15 minutes, the supernatant is filtered with a serum sampler. 2 ml of the clear yellow filtrate is then adjusted to a neutral pH with 2 ml of 0.5 N sodium hydroxide and the absorbance of 440 nm wavelength light is measured with a spectrophotometer. The amount of azocasein hydrolyzed is calculated based on a standard curve of known concentrations of azocasein solution developed under identical conditions. An enzyme activity unit (“AZ U”) is defined as that amount of enzyme which hydrolyzes 1 μg of azocasein substrate/minute at 37° C. The following is an example of the stability of Me-trypsin in a disinfecting composition of the present invention as compared to analogous compositions containing trypsin or pancreatin. The enzymes were solubilized in the Example 5C composition. The compositions were stored at room temperature or 30° C. for up to 42 days. At various time points, enzyme activity was assayed using the azocasein method.

azocasein [3] = assay: Enzyme stability of the Example 6 multi-purpose composition versus trypsin or pancreatin compositions, azocasein method; conditions: Me-trypsin: Example 6 composition, trypsin/pancreatin: 1.4 mL of Example 3B analog in 120 mL of Example 2B
Protocol: Azocasein Method The following solutions are used in this assay: 1) Buffer solution: 0.05 M sodium phosphate buffer containing 0.9% sodium chloride, pH 7.6. 2) Substrate solution: 2 mg/ml azocasein in the buffer solution mentioned above. The assay is initiated by mixing 1 ml of an appropriately diluted (such that the enzyme activity is in the range of standard curve) enzyme composition in phosphate buffer with 2 ml of azocasein substrate solution (2 mg/ml). After incubation at 37° C. for 20 minutes, the mixture is removed from the incubator and 1 ml of trichloroacetic acid to (14% w/v) is added to stop the enzyme reaction. The mixture is vortexed well and allowed to stand at room temperature for 20 minutes. After centrifuging at 2500 rpm (with a Beckman GS-6R Centrifuge) for 15 minutes, the supernatant is filtered with a serum sampler. 2 ml of the clear yellow filtrate is then adjusted to a neutral pH with 2 ml of 0.5 N sodium hydroxide and the absorbance of 440 nm wavelength light is measured with a spectrophotometer. The amount of azocasein hydrolyzed is calculated based on a standard curve of known concentrations of azocasein solution developed under identical conditions. An enzyme activity unit (“AZ U”) is defined as that amount of enzyme which hydrolyzes 1 μg of azocasein substrate/minute at 37° C. […] The trypsin or pancreatin compositions were prepared by dispersing 1.4 mL of Example 3B (wherein Me-trypsin was replaced by either trypsin or pancreatin) in 120 mL of Example 2B. The compositions were incubated at room temperature, 30° and 35° C. At the appointed time, aliquots were tested for enzyme activity by the azocasein method. Activity levels were compared with initial levels and expressed as percent remaining activity.

With methyl trypsin [Me-Trypsin] the “% Activity Remaining” value (azocasein [1]; 35° C., 24 hrs) was 97.6%, the “% Activity Remaining” value (azocasein [1]; 35° C., 48 hrs) was 96.4% and the “% Activity Remaining” value (azocasein [1]; 35° C., 72 hrs) was 91.6%. The “% Activity Remaining” value (azocasein [1]; 35° C., 168 hrs) was 87.3%, the “% Activity Remaining” value (azocasein [1]; 40° C., 24 hrs) was 88.9% and the “% Activity Remaining” value (azocasein [1]; 40° C., 114 hrs) was 75.2%. The “% Activity Remaining” value (azocasein [1]; 40° C., 168 hrs) was 67.0%, the “% Activity Remaining” value (azocasein [2]; 30° C., 1 day) was 99.7% and the “% Activity Remaining” value (azocasein [2]; 30° C., 2 days) was 97.8%. The “% Activity Remaining” value (azocasein [2]; 30° C., 5 days) was 96.1%, the “% Activity Remaining” value (azocasein [2]; 30° C., 7 days) was 93.5% and the “% Activity Remaining” value (azocasein [2]; 30° C., 14 days) was 91.8%. For the same substance, the “% Activity Remaining” value (azocasein [2]; 30° C., 21 days) was 86.7%, the “% Activity Remaining” value (azocasein [2]; 30° C., 28 days) was 82.7% and the “% Activity Remaining” value (azocasein [2]; 30° C., 35 days) was 80.0%. The “% Activity Remaining” value (azocasein [2]; 30° C., 42 days) was 76.3%, the “% Activity Remaining” value (azocasein [2]; RT, 1 day) was 100.9% and the “% Activity Remaining” value (azocasein [2]; RT, 2 days) was 100.8%. For the same substance, the “% Activity Remaining” value (azocasein [2]; RT, 5 days) was 97.9%, the “% Activity Remaining” value (azocasein [2]; RT, 7 days) was 99.4% and the “% Activity Remaining” value (azocasein [2]; RT, 14 days) was 100.0%. For the same substance, the “% Activity Remaining” value (azocasein [2]; RT, 21 days) was 98.5%, the “% Activity Remaining” value (azocasein [2]; RT, 28 days) was 96.6% and the “% Activity Remaining” value (azocasein [2]; RT, 35 days) was 96.5%. The “% Activity Remaining” value (azocasein [2]; RT, 42 days) was 94.0%, the “stability in a disinfecting composition over analogous compositions containing trypsin or pancreatin” value (azocasein [2]; summary of Table 2) was “superior stability” and the “% Remaining Activity” value (azocasein [3]; 30° C., 1 week) was 97.0%. The “% Remaining Activity” value (azocasein [3]; 30° C., 2 weeks) was 97.2%, the “% Remaining Activity” value (azocasein [3]; 30° C., 3 weeks) was 91.1% and the “% Remaining Activity” value (azocasein [3]; 30° C., 4 weeks) was 90.6%. The “% Remaining Activity” value (azocasein [3]; 30° C., 6 weeks) was 85.8%, the “% Remaining Activity” value (azocasein [3]; 30° C., 8 weeks) was 83.0% and the “% Remaining Activity” value (azocasein [3]; 35° C., 1 week) was 82.1%. For the same substance, the “% Remaining Activity” value (azocasein [3]; 35° C., 2 weeks) was 75.0%, the “% Remaining Activity” value (azocasein [3]; 35° C., 3 weeks) was 71.4% and the “% Remaining Activity” value (azocasein [3]; 35° C., 4 weeks) was 65.2%. For the same substance, the “% Remaining Activity” value (azocasein [3]; 35° C., 6 weeks) was 55.9%, the “% Remaining Activity” value (azocasein [3]; 35° C., 8 weeks) was 50.3% and the “% Remaining Activity” value (azocasein [3]; RT, 1 week) was 101.3%. For the same substance, the “% Remaining Activity” value (azocasein [3]; RT, 2 weeks) was 99.6%, the “% Remaining Activity” value (azocasein [3]; RT, 3 weeks) was 98.4% and the “% Remaining Activity” value (azocasein [3]; RT, 4 weeks) was 98.1%. For the same substance, the “% Remaining Activity” value (azocasein [3]; RT, 6 weeks) was 96.0% and the “% Remaining Activity” value (azocasein [3]; RT, 8 weeks) was 96.4%.
